# Test results as given in article PMC3568036.
# Experiments:
# [1] = biological target: Flag-tagged EspM2 (EHEC O157:H7 Sakai)
# [2] = biological target: Flag-tagged EspM2 (EHEC O157:H7 Sakai); remark: listed apart in the source
substance,measurement,setting,value
GST-EspO1-2 W77A (natural protein),percent of HeLa cells with stress fibers when transfected with EspM2 and EspO1-2 W77A expression vectors (38% with the EspM2 vector only) (% of transfected cells),[1],20
GST-EspO1-2 W77H (natural protein),percent of HeLa cells with stress fibers when transfected with EspM2 and EspO1-2 W77H expression vectors (38% with the EspM2 vector only) (% of transfected cells),[1],20
glutathione-S-transferase (GST)-tagged EspO1-2 (natural protein),"percent of HeLa cells with stress fibers when transfected with both EspM2 and EspO1-2 expression vectors (38% with the EspM2 vector only), 72 h post-transfection (% of transfected cells)",[2],10
